Reference: article PMC4861432, “Naturally Occurring Isoleucyl-tRNA Synthetase without tRNA-dependent Pre-transfer Editing” (The Journal of Biological Chemistry, 2016)

Key:
ScIleRS = molecular target: T1, ScIleRS (Saccharomyces cerevisiae, UniProt P09436); test: ATP-PPi exchange inhibition, global fit; type: biochemical
T1 construct: gene ILS1; pET28b, E. coli Rosetta(DE3), Ni-NTA (His tag) and size-exclusion chromatography, monomer
T1 sequence (P09436 1-1072): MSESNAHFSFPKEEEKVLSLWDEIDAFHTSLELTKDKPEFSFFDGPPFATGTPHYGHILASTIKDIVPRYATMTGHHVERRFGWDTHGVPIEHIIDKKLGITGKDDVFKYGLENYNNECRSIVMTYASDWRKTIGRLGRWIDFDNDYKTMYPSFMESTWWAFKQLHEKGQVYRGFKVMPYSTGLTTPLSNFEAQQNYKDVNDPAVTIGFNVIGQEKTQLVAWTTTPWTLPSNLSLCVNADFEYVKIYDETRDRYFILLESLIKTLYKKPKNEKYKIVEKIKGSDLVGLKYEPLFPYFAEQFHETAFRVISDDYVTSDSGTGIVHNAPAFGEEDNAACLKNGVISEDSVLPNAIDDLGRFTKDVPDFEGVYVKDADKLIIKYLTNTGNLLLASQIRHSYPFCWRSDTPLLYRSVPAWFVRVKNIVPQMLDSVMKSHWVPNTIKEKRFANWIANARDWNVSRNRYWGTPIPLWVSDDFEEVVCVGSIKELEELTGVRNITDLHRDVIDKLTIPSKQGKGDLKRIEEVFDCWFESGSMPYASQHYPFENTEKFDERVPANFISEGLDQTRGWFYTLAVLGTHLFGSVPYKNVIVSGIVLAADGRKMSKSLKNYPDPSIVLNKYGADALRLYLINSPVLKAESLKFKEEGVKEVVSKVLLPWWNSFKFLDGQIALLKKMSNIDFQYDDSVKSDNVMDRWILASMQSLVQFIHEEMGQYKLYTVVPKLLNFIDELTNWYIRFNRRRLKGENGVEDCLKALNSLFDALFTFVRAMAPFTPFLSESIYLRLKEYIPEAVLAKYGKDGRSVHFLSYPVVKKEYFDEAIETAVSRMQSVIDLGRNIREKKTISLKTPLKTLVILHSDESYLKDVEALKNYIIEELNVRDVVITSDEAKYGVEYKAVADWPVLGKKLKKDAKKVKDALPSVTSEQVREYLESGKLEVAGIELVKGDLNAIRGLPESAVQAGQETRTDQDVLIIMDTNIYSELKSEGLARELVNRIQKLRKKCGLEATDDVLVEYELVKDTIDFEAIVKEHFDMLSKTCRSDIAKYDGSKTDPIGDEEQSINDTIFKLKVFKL

SgIleRS = molecular target: T2, SgIleRS (Streptomyces griseus, UniProt B1W0J8); test: ATP-PPi exchange inhibition, global fit; type: biochemical
T2 construct: gene ileS; ileS from genomic DNA in pET28b, E. coli BL21(DE3), Ni-NTA purified (His tag), ZnCl2 added during growth
T2 sequence (B1W0J8 1-1047): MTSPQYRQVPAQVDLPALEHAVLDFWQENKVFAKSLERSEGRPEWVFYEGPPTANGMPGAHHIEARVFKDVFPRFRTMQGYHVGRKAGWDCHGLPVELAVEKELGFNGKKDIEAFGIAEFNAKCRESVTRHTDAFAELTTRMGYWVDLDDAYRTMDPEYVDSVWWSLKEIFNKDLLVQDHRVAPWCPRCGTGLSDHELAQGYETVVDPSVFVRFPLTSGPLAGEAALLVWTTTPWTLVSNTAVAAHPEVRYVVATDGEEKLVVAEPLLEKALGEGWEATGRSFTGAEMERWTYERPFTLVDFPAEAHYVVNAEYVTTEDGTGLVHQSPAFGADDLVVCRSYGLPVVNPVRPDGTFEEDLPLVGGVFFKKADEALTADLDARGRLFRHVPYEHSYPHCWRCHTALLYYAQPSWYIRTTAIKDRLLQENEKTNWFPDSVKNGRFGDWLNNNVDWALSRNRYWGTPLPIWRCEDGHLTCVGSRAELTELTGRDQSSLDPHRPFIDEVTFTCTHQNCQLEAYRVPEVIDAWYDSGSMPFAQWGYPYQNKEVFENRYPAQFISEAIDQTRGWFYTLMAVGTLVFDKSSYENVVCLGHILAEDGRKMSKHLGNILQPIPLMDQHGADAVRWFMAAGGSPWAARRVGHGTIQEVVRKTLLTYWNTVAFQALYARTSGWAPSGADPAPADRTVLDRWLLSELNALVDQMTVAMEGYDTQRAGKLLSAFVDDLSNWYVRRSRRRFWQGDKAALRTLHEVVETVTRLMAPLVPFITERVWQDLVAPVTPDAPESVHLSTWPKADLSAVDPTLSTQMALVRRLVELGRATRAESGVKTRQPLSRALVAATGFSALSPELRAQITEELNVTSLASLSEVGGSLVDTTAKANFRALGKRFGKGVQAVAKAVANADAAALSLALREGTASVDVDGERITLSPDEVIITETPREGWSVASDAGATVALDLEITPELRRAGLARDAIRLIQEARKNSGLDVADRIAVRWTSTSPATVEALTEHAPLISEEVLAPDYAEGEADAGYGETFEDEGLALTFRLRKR

[1] = substrate: CC(C)[C@H](N)C(=O)O; test: ATP-PPi exchange (amino acid activation); type: biochemical, Saccharomyces cerevisiae; conditions: 30 °C, pH 7.5, 4 mM ATP, 1 mM PPi, 20 mM MgCl2, no tRNA
From the text: (§1) ATP-PPi exchange (amino acid activation) on ScIleRS

[2] = substrate: CC[C@H](C)[C@H](N)C(=O)O; test: ATP-PPi exchange (amino acid activation); type: biochemical, Saccharomyces cerevisiae; conditions: 30 °C, pH 7.5, 4 mM ATP, 1 mM PPi, 20 mM MgCl2, no tRNA
From the text: as §1

[3] = substrate: CC(C)[C@H](N)C(=O)O; test: ATP-PPi exchange (amino acid activation); type: biochemical, Streptomyces griseus; conditions: 30 °C, pH 7.5, 4 mM ATP, 1 mM PPi, 20 mM MgCl2, no tRNA
From the text: (§2) ATP-PPi exchange (amino acid activation) on SgIleRS

[4] = substrate: CC[C@H](C)[C@H](N)C(=O)O; test: ATP-PPi exchange (amino acid activation); type: biochemical, Streptomyces griseus; conditions: 30 °C, pH 7.5, 4 mM ATP, 1 mM PPi, 20 mM MgCl2, no tRNA
From the text: as §2

C/C(=C\C(=O)OCCCCCCCCC(=O)O)C[C@@H]1OC[C@H](C[C@@H]2O[C@H]2[C@@H](C)[C@H](C)O)[C@@H](O)[C@H]1O [mupirocin]
Ki (ScIleRS): 0.028 mM | Ki (SgIleRS): 10 mM

B1: ScIleRS (Saccharomyces cerevisiae S288C) (protein)
chain: T1 sequence (P09436 1-1072)
notes: pET28b, E. coli Rosetta(DE3), Ni-NTA (His tag) and size-exclusion chromatography, monomer
kcat [1]: 8.6 ± 1 s⁻¹ | kcat [2]: 11.4 ± 0.8 s⁻¹

B2: SgIleRS (Streptomyces griseus subsp. griseus NBRC 13350) (protein)
chain: T2 sequence (B1W0J8 1-1047)
notes: ileS from genomic DNA in pET28b, E. coli BL21(DE3), Ni-NTA purified (His tag), ZnCl2 added during growth
kcat [3]: 19.3 ± 0.4 s⁻¹ | kcat [4]: 20.6 ± 1.4 s⁻¹
